Results on 48 sequences are retold here after the supplement of paper PMC10899765.

What all share (settings): 20 nM; 72 h
Series [1] concerns MCF10A. In words: one-nucleolus phenotype percent effect (relative to siNT 0% and siNOL11 100%); higher = more cells with one nucleolus (ribosome biogenesis inhibition). As for the experimental part:
(§1)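 After 72 h, cells were fixed and stained with Hoechst and anti-fibrillarin, and nucleoli per nucleus were counted with CellProfiler. Values are plate-adjusted percent effect for the one-nucleolus and 5+ nucleoli phenotypes, normalised to siNT (0%) and to the positive controls siNOL11 or siKIF11 (100%), as the mean of biological triplicates. Percent viability is the nuclei count relative to siNT.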

Series [2] concerns MCF10A. As to the kind of experiment: 5+ nucleoli phenotype percent effect (relative to siNT 0% and siKIF11 100%); higher = more cells with five or more nucleoli. The method, then: as §1
Series [3] has as its system MCF10A. In words: percent viability (nuclei count relative to siNT); higher = more viable cells. As for the experimental part:
as §1

Turning to AGAGGAUACCCUUUGUAUGUU [hsa-miR-1185-5p], the “one-nucleolus phenotype percent effect” value in the series with MCF10A [1] came to 2.36%. The “5+ nucleoli phenotype percent effect” value in the series with MCF10A [2] worked out at 5.5%. Further, in the series with MCF10A [3], the percent viability was found to be 34.2%.
For “AGAGGCUGAGAAGGUGAUGUUG [hsa-miR-6884-5p]” the same measures were 41.6%, -24.7% and 22.3%.
The corresponding values for AGAGGCUGGCCGUGAUGAAUUC [hsa-miR-485-5p] are -17.3%, 22.1% and 216%.
The corresponding values for AGAGGCUUUGUGCGGAUACGGGG [hsa-miR-3188] are 33.1%, -26% and 29.7%.
Turning to AGAGGUAGGUGUGGAAGAA [hsa-miR-4458], the “one-nucleolus phenotype percent effect” value with MCF10A [1] is -20.7%. Further, the “5+ nucleoli phenotype percent effect” value with MCF10A [2] is 36.9%. In the series with MCF10A [3], the percent viability came to 42.7%.
For AGAGGUAGUAGGUUGCAUAGUU [hsa-let-7d-5p] the same measures were -18.5%, 30.8% and 28.7%.
For AGAGGUAUAGGGCAUGGGAA [hsa-miR-202-3p] the same measures were 10.1%, 3.86% and 42.3%.
The corresponding values for AGAGGUUAUCCGUGUUAUGUUC [hsa-miR-655-5p] are 22.9%, -32.8% and 32.4%.
As to AGAGGUUGCCCUUGGUGAAUUC [hsa-miR-377-5p], the “one-nucleolus phenotype percent effect” value in the series with MCF10A [1] turned out to be 36.3%. Also, the “5+ nucleoli phenotype percent effect” value in the series with MCF10A [2] is -35.2%. Further, the percent viability in the series with MCF10A [3] stood at 22%.
For AGAGUCGGCGACGCCGCCAGC [hsa-miR-4785] the same measures were 25.1%, -30.3% and 49.5%.
The corresponding values for AGAGUCUUGUGAUGUCUUGC [hsa-miR-924] are 24.7%, -44.9% and 42.5%.
Turning to AGAGUUAACUCAAAAUGGACUA [hsa-miR-4424], the “one-nucleolus phenotype percent effect” value in the series with MCF10A [1] is -9.95%. The “5+ nucleoli phenotype percent effect” value in the series with MCF10A [2] turned out to be 6.94%. Further, in the series with MCF10A [3], the percent viability is 51.7%.
Turning to “AGAGUUGAGUCUGGACGUCCCG [hsa-miR-219-1-3p]”, in the series on MCF10A [1], the “one-nucleolus phenotype percent effect” value was -25%. In the series on MCF10A [2], the “5+ nucleoli phenotype percent effect” value turned out to be 30.8%. In the series with MCF10A [3], the percent viability worked out at 88.9%.
The corresponding values for “AGAUAUUUUGAGUGUUUGGAAUUG [hsa-miR-3145-3p]” are -11.7%, -8.4% and 48.7%.
The corresponding values for AGAUCGACCGUGUUAUAUUCGC [hsa-miR-369-5p] are -0.708%, 3.93% and 53%.
For AGAUGUAUGGAAUCUGUAUAUAUC [hsa-miR-3171] the same measures were -12.5%, 13.6% and 91.9%.
As to “AGAUGUCCAGCCACAAUUCUCG [hsa-miR-2964a-5p]”, in the series on MCF10A [1], the “one-nucleolus phenotype percent effect” value came out at 39.4%. Further, the “5+ nucleoli phenotype percent effect” value with MCF10A [2] is -43.9%. The percent viability with MCF10A [3] is 30.3%.
In the case of “AGAUUGUUUCUUUUGCCGUGCA [hsa-miR-4445-5p]”, the “one-nucleolus phenotype percent effect” value in the series with MCF10A [1] came to 34.7%. In the series with MCF10A [2], the “5+ nucleoli phenotype percent effect” value is -21.9%. In the series on MCF10A [3], the percent viability stood at 19.2%.
The corresponding values for “AGCAAAAUAAGCAAAUGGAAAA [hsa-miR-1468-3p]” are -19.1%, 29.6% and 128%.
For “AGCAAGGCGGCAUCUCUCUGAU [hsa-miR-4708-3p]” the same measures were 16.1%, -21.8% and 43.7%.
Regarding AGCACACUGAGCGAGCGGAC [hsa-miR-8064], in the series with MCF10A [1], the “one-nucleolus phenotype percent effect” value is -0.792%. Also, the “5+ nucleoli phenotype percent effect” value in the series with MCF10A [2] is -14.8%. The percent viability with MCF10A [3] is 44.2%.
As for AGCAGAAGCAGGGAGGUUCUCCCA [hsa-miR-298], the “one-nucleolus phenotype percent effect” value in the series on MCF10A [1] was 17.9%. The “5+ nucleoli phenotype percent effect” value in the series with MCF10A [2] was -22.8%. The percent viability in the series on MCF10A [3] worked out at 25.9%.
With AGCAGACUUGACCUACAAUUA [hsa-miR-4771], the “one-nucleolus phenotype percent effect” value in the series with MCF10A [1] was -9.9%. Further, the “5+ nucleoli phenotype percent effect” value in the series with MCF10A [2] was 3.81%. In addition, in the series with MCF10A [3], the percent viability turned out to be 53.6%.
For “AGCAGAGGCAGAGAGGCUCAGG [hsa-miR-2467-3p]” the same measures were 26.3%, -24.4% and 4.65%.
For AGCAGCAUUGUACAGGGCUAUCA [hsa-miR-107] the same measures were 29.9%, -26.1% and 22.7%.
The corresponding values for “AGCAGCAUUGUACAGGGCUAUGA [hsa-miR-103a-3p]” are 15.6%, -29% and 36.3%.
With AGCAGGGCUGGGGAUUGCA [hsa-miR-6132], the “one-nucleolus phenotype percent effect” value in the series on MCF10A [1] turned out to be 57.1%. For the same sequence, the “5+ nucleoli phenotype percent effect” value in the series with MCF10A [2] is -31%. Further, the percent viability in the series with MCF10A [3] amounted to 20.5%.
For AGCAGGUGCGGGGCGGCG [hsa-miR-3665] the same measures were 40.6%, -20.8% and 33%.
Regarding “AGCAGUGUUUGUUUUGCCCACA [hsa-miR-6499-3p]”, in the series on MCF10A [1], the “one-nucleolus phenotype percent effect” value came to 16.7%. Further, the “5+ nucleoli phenotype percent effect” value in the series with MCF10A [2] was -48%. Also, in the series with MCF10A [3], the percent viability came out at 30.3%.
The corresponding values for AGCAUACACCUGUAGUCCUAGA [hsa-miR-5689] are 0.904%, 2.26% and 66.7%.
For AGCAUGACAGAGGAGAGGUGG [hsa-miR-6076] the same measures were 7.38%, -17.6% and 33.8%.
For AGCCAAGUGGAAGUUACUUUA [hsa-miR-4480], the “one-nucleolus phenotype percent effect” value with MCF10A [1] came to 33.8%. In addition, the “5+ nucleoli phenotype percent effect” value in the series on MCF10A [2] is -37.2%. Moreover, the percent viability with MCF10A [3] came to 21.9%.
The corresponding values for “AGCCAGGCUCUGAAGGGAAAGU [hsa-miR-4755-3p]” are 7.85%, 3.33% and 59.3%.
The corresponding values for AGCCCCCUGGCCCCAAACCC [hsa-miR-4313] are -4.86%, 6.68% and 38.7%.
For AGCCCCUGCCCACCGCACACUG [hsa-miR-210-5p] the same measures were -21%, 53% and 101%.
As for “AGCCCGCCCCAGCCGAGGUUCU [hsa-miR-4707-3p]”, in the series with MCF10A [1], the “one-nucleolus phenotype percent effect” value was determined as 19.7%. In the series on MCF10A [2], the “5+ nucleoli phenotype percent effect” value is -25.2%. Also, the percent viability in the series on MCF10A [3] was 42.9%.
The corresponding values for AGCCGCGGGGAUCGCCGAGGG [hsa-miR-3648] are -17.8%, 19.7% and 88.3%.
The corresponding values for “AGCCGCUCUUCUCCCUGCCCACA [hsa-miR-6743-3p]” are -1.42%, 35.5% and 58%.
The corresponding values for AGCCUGGAAGCUGGAGCCUGCAGU [hsa-miR-1254] are 10.5%, -6.84% and 50.1%.
As for AGCCUGUGCUUGUCCCUGCAG [hsa-miR-6811-3p], the “one-nucleolus phenotype percent effect” value in the series on MCF10A [1] was 24.6%. In addition, the “5+ nucleoli phenotype percent effect” value in the series with MCF10A [2] was -10.2%. In the series on MCF10A [3], the percent viability amounted to 11.8%.
For “AGCCUUCCAGGAGAAAUGGAGA [hsa-miR-5581-5p]” the same measures were 20.5%, -16.7% and 14.3%.
The corresponding values for AGCGAGGUUGCCCUUUGUAUAU [hsa-miR-381-5p] are -12.7%, 0.715% and 52.5%.
For “AGCGCGGGCUGAGCGCUGCCAGUC [hsa-miR-2277-5p]” the same measures were 25.5%, -22.4% and 31.3%.
Regarding “AGCGGGGAGGAAGUGGGCGCUGCUU [hsa-miR-4706]”, in the series with MCF10A [1], the “one-nucleolus phenotype percent effect” value was -0.404%. In addition, the “5+ nucleoli phenotype percent effect” value in the series on MCF10A [2] is -0.458%. Besides, in the series with MCF10A [3], the percent viability worked out at 32.7%.
For AGCGGUGCUCCUGCGGGCCGA [hsa-miR-4746-3p] the same measures were 35.6%, -33% and 34.7%.
The corresponding values for “AGCGUGGGAUGUCCAUGAAGUCAG [hsa-miR-6853-5p]” are -26.6%, 90.6% and 71.7%.
For the sequence AGCUACAGUUACUUUUGCACCA [hsa-miR-548v], the “one-nucleolus phenotype percent effect” value in the series on MCF10A [1] was -5.59%. For the same sequence, in the series on MCF10A [2], the “5+ nucleoli phenotype percent effect” value was -8.87%. In addition, the percent viability in the series with MCF10A [3] is 68.4%.
For AGCUACAUCUGGCUACUGGGU [hsa-miR-222-3p] the same measures were -5.3%, -9.89% and 71.6%.
